The supplement of paper PMC10724198
± gives the standard deviation of the averaged measurements.

Tested on: Saccharomyces cerevisiae
Test: protein stability index of tFT-peptide fusion (C-terminal peptide) (PSI (0-1 scale)); higher = more stable (slower turnover)
Details: genetic background: wild type; temperature: 30 C
Experimental: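 Multiplexed protein stability (MPS) profiling in S. cerevisiae. Random 12-aa peptides (tFT-X12 library) are fused to the C-terminus of a sfGFP-mCherry tandem fluorescent timer, after mCherry and a GGGS linker. Cells are FACS-sorted into 8 mCherry/sfGFP bins and deep-sequenced. The protein stability index (PSI) is the read-weighted bin average, scaled from 0 (unstable) to 1 (stable). Only peptides with >10 reads are reported; cells were grown at 30 °C in SC-His with glucose.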
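Note: PSI is a weighted mean of sequencing reads over stability bins, variants kept only with over 10 reads, mCherry proximal and sfGFP distal, peptide attached via GGGS linker.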

Sequence	protein stability index
GYTSGEEGAVTA	0.624 ± 0.016
HAPALSSTPRLL	0.6836 ± 0.0064
HAPPPPDASPPL	0.677 ± 0.051
HATPPAPHSVSS	0.774 ± 0.036
HCFWVVTGGSWF	0.691 ± 0.06
HCPIPWASLNCL	0.665 ± 0.0082
HDAPTRQLTLPG	0.663 ± 0.031
HDETKAYLAPGQ	0.697 ± 0.037
HFGPRTTLCAPD	0.666 ± 0.034
HGLESMNRYRWI	0.555 ± 0.016
HGLLDPLSILLY	0.668 ± 0.013
HGNFLTALVGRI	0.669 ± 0.046
HGSVGRIAHVLS	0.6672 ± 0.0062
HGVQEFRVAPEF	0.738 ± 0.035
HHEDGRPTCQAN	0.677 ± 0.046
HHPLGSPPVPPP	0.729 ± 0.039
HHPTQRPRHRLG	0.683 ± 0.082
HIKSENKEKGKI	0.624 ± 0.022
HILSPRPAIGVL	0.612 ± 0.021
HIPRLPRPTRAP	0.682 ± 0.059
HIYHIRFANKRG	0.657 ± 0.013
HKNPQKEVIAKT	0.744 ± 0.058
HLDVRGTRRMGT	0.669 ± 0.042
HLGPPPGRVFAV	0.6194 ± 0.0052
HLPGFAVVFPFP	0.717 ± 0.032

Sequence	protein stability index
HLPPMLSCTLRS	0.657 ± 0.046
HLPRHVSLLGPP	0.671 ± 0.0079
HLPSPLPSPSFH	0.6061 ± 0.0017
HLRPRYSLVPAT	0.651 ± 0.048
HLSPGRLPPPVQ	0.7136 ± 0.006
HMLSGRSFVRGD	0.69 ± 0.038
HNFYKLNLDHLK	0.649 ± 0.061
HPGPPPPPAAAA	0.679 ± 0.007
HPKPNLPPAAVH	0.6854 ± 0.0049
HPLFCPPPPPLA	0.708 ± 0.036
HPLPPPPRSPPS	0.732 ± 0.011
HPNGVMIGKNPT	0.702 ± 0.023
HPNKPTYLPSPY	0.768 ± 0.1
HPPAPSPPETSL	0.69756 ± 0.0005
HPPPFRLPPAPP	0.639 ± 0.0072
HPPPSLAASPPP	0.544 ± 0.017
HPPPSNYWPSSA	0.658 ± 0.084
HPPTLCPLSRRH	0.659 ± 0.047
HPRRLRPAHTPP	0.725 ± 0.0075
HPSFPPHRSPAS	0.78 ± 0.023
HPSRWPSPRAIL	0.684 ± 0.051
HPTRPHLPPFAP	0.681 ± 0.066
HQKQCRSNRHRG	0.657 ± 0.05
HRAFAAGFGVWG	0.669 ± 0.067
HRCPSPPWFHPS	0.752 ± 0.071

Sequence	protein stability index
HRILILSGLRAG	0.626 ± 0.041
HRPSPLPPRVPL	0.673 ± 0.033
HRRASYVLSPLS	0.7413 ± 0.0073
HRRGRVAQFAIS	0.644 ± 0.029
HRVNKKNCEEKT	0.631 ± 0.053
HRVVAATKSPSA	0.727 ± 0.064
HRYSGSTFSAVL	0.728 ± 0.11
HSLRPPPRHQQK	0.689 ± 0.02
HSNPPPRRHPTI	0.756 ± 0.068
HSQPPRRPSTNP	0.792 ± 0.033
HSSLPQPRELRT	0.674 ± 0.021
HSSPHFTTTKTP	0.7081 ± 0.0016
HSVPSCPKFSII	0.66732 ± 0.00044
HTDSKVVILFVP	0.592 ± 0.014
HTGLRASSPNST	0.753 ± 0.052
HTPAPLPPPLHP	0.691 ± 0.011
HTPPAPLPSSPH	0.749 ± 0.0079
HTPPMVGMLCLG	0.6 ± 0.032
HTSFQTNASPKD	0.727 ± 0.031
HVDSLPRPLLPS	0.716 ± 0.056
HVLCRAFLFLLP	0.642 ± 0.016
HVLHKPYRPGRP	0.601 ± 0.0069
HVPHFCLSPTII	0.758 ± 0.14
HVPRFLPFLSSL	0.739 ± 0.033
HVVLPPRYCISR	0.696 ± 0.015

Sequence	protein stability index
HWRRGGRSGGDR	0.71 ± 0.033
HWTLRRGTGIEL	0.6693 ± 0.0061
HYEIFSCDPGCD	0.746 ± 0.024
HYLHRDSLLRWL	0.6182 ± 0.0033
HYRLPLPPASPA	0.701 ± 0.052
HYSMAPIPHDNR	0.711 ± 0.074
IAASCGPRYKDS	0.632 ± 0.077
IADGSEIVRSLI	0.71 ± 0.038
IAEWVRLIVGEG	0.671 ± 0.015
IAVSWIRGGRIM	0.849 ± 0.13
ICCASALPFDIS	0.784 ± 0.19
IDVRRAIIPGLG	0.595 ± 0.011
IESLDRRGAEQI	0.747 ± 0.045
IFIPRFDLPSFP	0.788 ± 0.16
IFIVINGHFAGS	0.66 ± 0.06
IFKSLEKKTKRV	0.766 ± 0.0086
IFMHPRATLPAR	0.73 ± 0.076
IFRSLDFVFYFT	0.646 ± 0.097
IFSSFCPASFFL	0.757 ± 0.031
IGFNVEIRKGMG	0.605 ± 0.082
IGGRRGVTGIFV	0.699 ± 0.064
IGIGVAGERLGV	0.612 ± 0.059
IGIIFTKCGGRT	0.688 ± 0.037
IGKWIKKKKQKG	0.631 ± 0.023
IGLFWSGFFYGV	0.743 ± 0.038

Sequence	protein stability index
IGLRCPPPKPYA	0.696 ± 0.035
IGLRVLSNSYEV	0.694 ± 0.031
IGRRGINGLWGG	0.627 ± 0.042
IGRVFGMENIKM	0.669 ± 0.014
IGTGLVLFSPCY	0.69 ± 0.022
IGTKKVINDKLL	0.675 ± 0.028
IGVRSPSTHIVN	0.72 ± 0.018
IGWCRLRDRLVS	0.556 ± 0.048
IHRLPPSLFPLL	0.776 ± 0.12
IIKDITNRGYAW	0.724 ± 0.073
IIKKKKNKARDI	0.734 ± 0.067
IILHLTRPGLAL	0.673 ± 0.013
IILVVLSRLYVI	0.5644 ± 0.003
IIPQSCTSGGHT	0.711 ± 0.061
IIRKYKARKKNK	0.688 ± 0.041
IKIKKKKKRNKR	0.685 ± 0.057
IKKKNQKHKKKN	0.7114 ± 0.0029
IKKKTNYMNEKI	0.661 ± 0.0096
IKKQTKTKKKEF	0.65 ± 0.058
IKKRTSNRENKD	0.7 ± 0.025
IKKSRSLRIGMN	0.584 ± 0.04
IKNENKKKKNKK	0.699 ± 0.024
IKRKKKKKKKRD	0.6558 ± 0.0015
IKTKKKKKKKRD	0.686 ± 0.0099
IKTVSDFLIVKL	0.6998 ± 0.0055

Sequence	protein stability index
ILCFSLESPRYH	0.6991 ± 0.0022
ILCLPFSVSSPS	0.61579 ± 0.00015
ILCPSPAPTSFP	0.6682 ± 0.0061
ILLSVAMNLRKH	0.571 ± 0.037
ILNNSDRAYTIQ	0.731 ± 0.04
ILPFYAEGQLKF	0.649 ± 0.05
ILSASARPPRPA	0.701 ± 0.011
ILSGIGNGSGSE	0.72 ± 0.06
ILSPDRTHANET	0.665 ± 0.083
ILSPLRHPEPTR	0.70614 ± 9.6e-05
ILVAPAYYCWKV	0.642 ± 0.045
ILWVSPFFFSLD	0.699 ± 0.064
INLVKRQTVKPP	0.611 ± 0.076
INYSNQNKINRW	0.6294 ± 0.00076
IPGHRHTKRIFG	0.641 ± 0.012
IPPPLPPRAPLP	0.672 ± 0.057
IPRERPAEHYGG	0.6473 ± 0.0018
IPSPYPPPAPLH	0.666 ± 0.011
IPSRALSCLLPC	0.66 ± 0.053
IPSRGVQIPSWV	0.63 ± 0.03
IQAGHLYPESLV	0.708 ± 0.056
